Measurements from the DeepSol protein solubility set.

Assay: soluble on expression in E. coli; label from the status in PepcDB or PDB records

Sequence | soluble on expression in E. coli
MGSDKIHHHHHHMNQQPEQITALYCRLSRDDELQGDSNSIVNQKSILSKYAEEHRLLNTRFFIDDGVSGTTFDRPGLNEMLALIDEEKVSTVIVKDMSRLGRDYLKVGLLTEIQLPEKGVRFIAINDGVDSNQGVSEFIAFRNVINEWYAKDTSKKIKAVFTAKGQSGKPLSTFPPYGYIKDPEDKNRWIVDEAAAEVVREIFRLCMEGNGPTKIARILSERRVLIPSAYAKSNGRSAPADVPADRCKWCDSTVAHILERKEYLGHTVNFKTYKESFRNKKQRKNPKENQMVFENTHQPIIEQDVWDTVQQLR | not soluble
MVMNRSSPHGGGVAAGDGGGRPLRPGHFPLRPLRGHLPPGGRIFALALAVALPVQAETLASRAPETVAITLYRDGDGPFQAMSPWVRQQARDKGLVLVTETRTVDLPAGRHTLRFDGVAEGLIPQSAAVEGLPGKAVERNYDYALLSPGTLVERSLGQPIKVVRTNRKTGRQQTVDATLIQGPYGLMVRTAEGVEALGCSGGAERLVLGAVPEGLTDKPSLSTIVEVPAPTRAKLTVSYLALGVNWQADYVARIHPDGQRLDLTGWLTLVNSGGSQFADAKTQAVAGKLSRKPVRVDKGEARSIHRACWPMDTTHYGQEPPPPPAPPPPLPIPMMSAAPMARAGAEEIAVTGARAKLAEQSNLGDYKLYTLPEPVTLNARQTKQVAFLDQKDVAFQRLYAVEMDSYDDYDNADWPLIIPDVVLRLENKTANGLGKPLPSGALSAIETAGGRPTFAGEQAVRDVAVGEPLDLVIGRAMDVHARPRLVEERTLSKGRVRRTYELDLANAKTVPITVEIRHDPTAPYFKLVSEPQKHDIRQGQVAWRVTLPAGERRSFRYAVAFGR | not soluble
MSDPLLQLISTGLGLWIRSRCDQVGDLDLTLQGSSLGLMRGRLQGAVLSARDVRFEGLPLHHAEISSGPIQLDLTWLRPGRMLALKDPFQVKGTVSMPGQPLGDALLSERWRELGDWIAEQLMGLKPLGQLRIENDELELVASVAAQRDPIRKRFRLRAEAGTVVLSASDSPETRAVLPMDPAITITDATLGAGLLTLQGHAIVTPE | not soluble
MGPNPMKMYPIEGNKSVQFIKPILEKLENVEVGEYSYYDSKNGETFDKQILYHYPILNDKLKIGKFCSIGPGVTIIMNGANHRMDGSTYPFNLFGNGWEKHMPKLDQLPIKGDTIIGNDVWIGKDVVIMPGVKIGDGAIVAANSVVVKDIAPYMLAGGNPANEIKQRFDQDTINQLLDIKWWNWPIDIINENIDKILDNSIIREVIWKK | soluble
MVGYSSKLIFVSMITRHGDRAPFANIENANYSWGTELSELTPIGMNQEYNLGLQLRKRYIDKFGLLPEHYVDQSIYVLSSHTNRTVVSAQSLLMGLYPAGTGPLIGDGDPAIKDRFQPIPIMTLSADSRLIQFPYEQYLAVLKKYVYNSPEWQNKTKEAAPNFAKWQQILGNRISGLNDVITVGDVLIVAQAHGKPLPKGLSQEDADQIIALTDWGLAQQFKSQKVSYIMGGKLTNRMIEDLNNAVNGKSKYKMTYYSGHALTLLEVMGTLGVPLDTAPGYASNLEMELYKDGDIYTVKLRYNGKYVKLPIMDKNNSCSLDALNKYMQSINEKFQKHHHHHH | soluble
MSLDREKANKNLLKILEAINGNSLVLFKSFEDLDSFYKYLKREITKTNIKNKNIHVYEQGMDGKEAKELKERFEKIGGILLATGRFAEGVDIPGEALVGVVIDSLPFPVPTPLILREQKILEERFKIRGVRDAHWRAFLMTSFDRMARTLVQMIGRLIRTENDYGVVVIQDKRFADWVGRVMREKGEGHHHHHH | soluble
MPKAKAKTKNTEIISPHHYVYPNTTTLKNKYGIKNLNAFLEKCSHDTAKAMINLREESLPEYFDTAYLCHIHQQLFKNTFEWAGYLRHIPFTFADGTTAAMPEMKRTGWKNAFAIGDEIQEGLQRLDQTLAEKNNLQGLTREEFNSEAIELFNSLNQLHPFREGNGRTQRLFFENLAKAAGHQLNFSLITKERMMVASVAVAENGDLEPMQHLFEDISNPEKIRLLKEFMHTMKNTGRNVNDRPVMVAKEGETYTGTYRGAGLEGFALNVKGAYIIGNIDHLPPEQLKILKPGDKITFTAPK | soluble
MSLNTPLAERLRPKKLEDYLSQHHLVGENGSLQQALKAGIIPSLILWGPPGIGKTTLATIIAEESKRPFYTLSAINSGVKDIREVIDKAKQSGGLFTQKNPILFIDEIHRFSKSQQDSLLGAVERGWVTLVGATTENPSFEVIPALLSRCQVYILKPFEKKDLILLLNRAINTDEILKKKNITLLETEALLRLSGGDARKLLNIFELIVTTENDKDVVVTNDMVLSKVQQNIVRYDKTGEQHYDIISAFIKSIRGSDPNAAVYWLARMIEGGEDVKFIARRLIIAAAEDIGNANPTALVIANNCFQAVTTIGYPEARIILSQCVTYLASSPKSNAAYMAIGKAQQLVKQTGDLSVPLPLRNAPTKLMKEIGYGNDYKYSHDYPGNFVQQEFLPKEISGTTLYEPTDNTREKAIKENLKAKWGSKYNYEGHHHHHH | soluble
MENKLKLVVVGDTYTGKTSLLVAYTKKQFLDNYTTTVFDNWAVSVHIDNKNYAVNLFDTAGQGNYEQIRCLSYPHANVFLVCFSMIDRKTLESCRSTWIPEIRKYAGDNVPIMLVGTKNDLVDDADSRNTVTEDYAKRVAHEIGCHKFYSCSALTHKGLKRVFDESFLAAVGVKLEEETPNPCCTIL | not soluble
MGSDKIHHHHHHMELNLQTAELALREASESNPGAWADHSRFVAEACKNIASHCKDLSSEQAYIFGLLHDIGRYAGVSSERHLIDGYRYCMERGWEKAAQICISHAFMIQDIATSIGVFDVSDEDYLFMKEFVANAVYDDYDRLVQLCDALAMPSGFCLLEKRFVDVTMRYGVHPATIDRWKKILEIKEQFENQIGCSIYSLLPGIVENSFR | not soluble
MSRPRKRLAGTSGSDKGLSGKRTKTENSGEALAKVEDSNPQKTSATKNCLKNLSSHWLMKSEPESRLEKGVDVKFSIEDLKAQPKQTTCWDGVRNYQARNFLRAMKLGEEAFFYHSNCKEPGIAGLMKIVKEAYPDHTQFEKNNPHYDPSSKEDNPKWSMVDVQFVRMMKRFIPLAELKSYHQAHKATGGPLKNMVLFTRQRLSIQPLTQEEFDFVLSLEEKEPS | soluble
MEFELEQHTPIIHFQARDAGATLRASEVKPKLDKFILTQIGKRFVKKTASTTEKNFIERGIEYFQNKDEEARRVYEEEKKKGNKGAKLELCLIPGQEGALNYKLSFKLSPDAKVQYFLPMSSNPKEIDKLKSLAQEKLGVQEVEMLPLTSYFANEDKAKSEPNIKHGDTPDQIKNKKRIFEENWQKVQLATFVNTPVEGVIRFQNAGLREEVNNLITNFFMLHNFGARQSKGFGSFIISLRDGKEEEDYFDTGCACYGYSFYIPAKTLEEALRKINYFYRSLRSGFNEYRGKNEIFYAKSGMHFYATKHNFEWDKKSIKGMLFDRDKDLEGKMKKEELFAFRDLLGLSSNERWQSYKTTITKECRNKKGEKFDRIKSPIQFKPICYSKYDYIVFFDLFPEKSGIPQLKGGKVVVKSSRHKGAVLELKIQEDIDLYNVFNEIFSELNFESQVGEYDSLTDAKEIFETMKDIYEQLNKNCHE | not soluble
SMSNDKTGKSLEQENSERDVEIRDRNYFRKLSLFDDTVIAGAEMIGTSYDVFGKYCNVGSCMNSLFDERKINASEDNFKKVTILGKTLKVPYYIDCYSVGDLKYTNASGESIESYQSNISSKSRIKGNYLFFSASLKVDFDTDSLTDFENAFSRIQYTYDLYILKSSAEALKEFLKESVKTALDKADTEEDMNDLFNTWGSHFLSGVVMGGCAQYSSSTNKYTSNLTNSFDVVAAASFAGFIGLSARTGNSFMEDIKKFRSASNIKTHAIGGDLSRFDPFGGATSADQPSAEEIAAAKKAFEDWKASVPNAPELVNFADSNPLTGIWELCSDRTQKAKLKKHFETVWAPAESAKRRVHADYIDEIIIGINNTNTPPEGYIGLKSTKDENLNSKGNICLFMHKAKYDPNIDNKDCITELKFITVRDKSPEGDWVKIPQDIYISPNQYLYLCYLPAKYSAEKAIKDIQLLCSSCGSSMILPYGYNDVLDERGERANATEDDNVHYLIYSAGWK | soluble
MAHHHHHHMAEALHERHFFDKFIKMNIPDDYLDASRFRVIPDNQEVYVHKFQDKCLIIEILCFQNMNIQEKGNFYFYDLAKENDSIENVIITSNHSVPHSQGNYILLVGRQKIKKNNSSTHEPILLYICIFPLEEHNADIIITWNVPKEDMDIQPELETFNEMMQSFRILDYTLFV | soluble
MGSDKIHHHHHHMIRMIRKFKVKGLRSPSLLIDMILNDTEEGILVVETDGEEQIKDIEKLLKKYNLKYEVDGNVVKIYVGEIKADKTINVVGATCPGPIMMVSDMLSKMKNGEILEIICGKNSLTDLTEGLKGMGNEIIKVEDKGDGTYRILVKKGEKKEEKAAVTKIDELFIINTTGTGNAEKAYATFMMADVALKMNLKPTIFLMMDGASLALKGECDRVKHPAFPKLGDLVRDILSKGVKIYVCELSAEFRGINEKNLEEGFEIAGAPTFLNYLSKPNVRPVWL | not soluble
MSVVGEERKRTILEKVEFKGKVKVSELAREFAVSTETIRRYLEELDREKKLKKVYGGAVQLPGAGVEAPMLEREMLHIEEKKRIGYKAATFVEDGDVIAIDDGSTPLQMVPYLVHRKNLTIVTSSFPVATQLISSINKKMFHGEVLFIGGKVSPKHSRVSGSISQQVIQQFHFHKAFVSIDGLLPSFGVSSFELEKAKLSEAMMKLAEKTYILCDHTKVGVKGNYRIAAISRIQHVICDKKMPYSFEEELMKHNIQWTVCLEHHHHHH | soluble
VDSVFIVGHRKLDMDALGASVGMQFFASNIVNASYVVYDPNDMNSDIERAIDYLQEDGETRLVSVERAFELITQNSLLVMVDHSKTALTLSKEFFNKFADVIVVDHHRRDEDFPKNAVLSFIESGASSASELVTELIQFQQAKDKLSRSQASILMAGIMLDTRNFASNVTSRTFDVASYLRGLGSNSMAIQKISATDF | not soluble
GLEIHVQIDTKSKLFCNCSTNYLDAEPNTNVCPVCLGLPGAKPLPPNKKAVEVAIMVAKMLGCKIVVDEDIYFQRKHYDYPDLPSGYQRTSTPIGVDGEFMGIGIHEVHLEEDPGQYNPSFGIVDYNRSGTPLIEIVTKPDIKSPEEAREFLKQLMTLFRYLGCLRGEGTMRADVNISIEYMGVQGNRVEVKNVNSIKGVYKVLKYELIRQKNIIKR | not soluble
MANGTVKIAEQSGVLPIAGDKIVLITARGSGRWIIPKGYIEKGMSPAESAAKEAWEEAGIVGSVRHEEIGTYSYRRPSGIFSVRIYPLEVESLLEQWDEMHVRQRRLVTPSEAIEMICLKELRSLITDYLIKRFDFLEHHHHHH | not soluble
GPGSMKTENFPRGQSAGPEGSLVEIPDHGERQQEVCHIGAPLQREIEAPAAEAGQSSDYKKPHAPHLLPVMEPVKPSSDPQLKDGRKEMPFTSALPIVVPDAPRLATQQRQVQKTKGNGSSAVPGEPDTCEGEPRAPSPGDPRPTQAFPAVEPFKRTASAKLSEARTDPRSPSASPDNESDGARVGSRQVDEEGSRPLCTLPAVELRKKPAGSTLQEEQAKELNTTHAFPVVEPDAVCTEARRSEELEDTRAGHAFPPVASGKQNTGA | soluble
MNMSQNLDFIHSAQRTIGLERDAVDSLLARIGDDFVKACELLLAGKGRVVVVGMGKSGHVGKKIAATLASTGTPSFFVHPAEASHGDMGMITKDDVVLALSNSGSTAEIVTLLPLIKRLGITLISMTGNPESPLAKAAEVNLDASVGQEACPLNLAPTSSTTVTLVLGDALAIALLEARGFTAEDFAFSHPGGALGRRLLLKVEDVMHVGEGLPQVLLGTSLTGALMEMTRKGLGMTVVLDEHGKLAGIFTDGDLRRALDRGIDVRQVTIDQVMTVHGKTVRAEILAAEALKIMEDNKIGALVVVDADDRPVGALNMHDLLRAGVM | not soluble
